In assay [1] the target is T1, HER2 protein (R&D Systems, Inc., Catalog No. 1129-ER) (UniProt P04626 23-652).
T1 construct: Bought reagent
Put plainly: SPR, Biacore T200; antigen immobilised, antibody as analyte. As to the method: (§1) The affinity of the prepared variants was measured using Biacore (registered trademark) T200 (GE Healthcare). […] Antigen was immobilized (immobilization: 50 RU) to a sensor chip for Biacore (registered trademark) Series S Sensor Chip CMS (GE Healthcare). The antibody solution was diluted to prepare antibody solutions of 30 nM, 15 nM, 7.5 nM, 3.75 nM and […]. The antibody solutions at each concentration were delivered to Biacore (registered trademark) T200 (GE Healthcare) (association time of 120 seconds and dissociation time of 1800 seconds). Measurement data was analyzed using Biacore (registered trademark) Evaluation software, and the data on the affinity of each antibody was obtained.
(§2) In the measurement, TSH protein (R&D Systems, Inc.) was used as an antigen of the anti-TSH antibody, and HER2 protein (R&D Systems, Inc., Catalog No. 1129-ER) was used as an antigen of the anti-HER2 antibody.

For assay [2], the target named is T1, HER2 protein (R&D Systems, Inc., …). Put plainly: SPR, Biacore T200; reference is the wild-type anti-HER2 antibody. The procedure: as §1, §2

The text below walks through data of patent US20210230304A1 (SYSMEX, published 2021).

B1: 76, 77, 81 variant (Arg) of the humanized anti-HER2 antibody (antibody, V domains shown)
VH: not shown
VL: DIQMTQSPSSLSASVGDRVTITCRASQDVNTAVAWYQQKPGKAPKLLIYSASFLYSGVPSRFSGSRSGTDFTLTIRRLQPRDFATYYCQQHYTTPPTFGQGTKVEIKR
In assay [1], B1 gave a dissociation constant Kd of 0.0219 nM. In assay [2], the “Ratio (Kd against wild-type = 1)” value came to 2.71.
